B1: MOR10110 (antibody, human IgG2, lambda, V domains shown)
VH: QVQLVESGGGLVQPGGSLRLSCAASGFTFTNYAMNWVRQAPGKGLEWVSYISYSSSNTYYADSVKGRFTISRDNSKNTLYLQMNSLRAEDTAVYYCARGAGLGYDVWGQGTLVTVSS
VL: DIELTQPPSVSVAPGQTARISCSGDNLRSKYVYWYQQKPGQAPVLVIYDTNDRPSGIPERFSGSNSGNTATLTISGTQAEDEADYYCQTYDMTSQDVFGGGTKLTVLG
B2: MOR09898 (antibody, human IgG2, lambda, V domains shown)
VH: QVQLVESGGGLVQPGGSLRLSCAASGFTFSNYWMTWVRQAPGKGLEWVSFISYSGSTTYYADSVKGRFTISRDNSKNTLYLQMNSLRAEDTAVYYCAREGTSSMFDVWGQGTLVTVSS
VL: DIELTQPPSVSVAPGQTARISCSGDALRSYYASWYQQKPGQAPVLVIYDDNKRPSGIPERFSGSNSGNTATLTISGTQAEDEADYYCASFTYMSDFVFGGGTKLTVLG
B3: MOR09892 (antibody, human IgG2, lambda, V domains shown)
VH: QVQLVESGGGLVQPGGSLRLSCAASGFTFSSYAMHWVRQAPGKGLEWVSYISYSGSNTYYADSVKGRFTISRDNSKNTLYLQMNSLRAEDTAVYYCARGWGGFDYWGQGTLVTVSS
VL: DIELTQPPSVSVAPGQTARISCSGDNLPNRYVHWYQQKPGQAPVLVIYDDNNRPSGIPERFSGSNSGNTATLTISGTQAEDEADYYCQSRDLHYSPVFGGGTKLTVLG
B4: MOR09281 (antibody, human IgG2, lambda, V domains shown)
VH: QVQLVESGGGLVQPGGSLRLSCAASGFTFSNYWMSWVRQAPGKGLEWVSLISYSGSTTYYADSVKGRFTISRDNSKNTLYLQMNSLRAEDTAVYYCARDTPIGMDFWGQGTLVTVSS
VL: DIELTQPPSVSVAPGQIARISCSGDNLGSYYAYWYQQKPGQAPVLVIYGDNDRPSGIPERFSGSNSGNTATLTISGTQAEDEADYYCSSYDIVQPYVFGGGTKLTVLG

target: mouse Siglec-15 (mouse); assay: cell-based or functional assay

| Binder | TRAP activity of mouse osteoclasts formed (RANKL-stimulated mouse bone marrow nonadherent cells) |
| --- | --- |
| B1 | ≥ 13 ng/mL |
| B2 | ≥ 13 ng/mL |
| B3 | ≥ 13 ng/mL |
| B4 | ≥ 13 ng/mL |

Reference: patent US20130280276A1 (Daiichi Sankyo, published 2013)
